For 44 molecules, Protein binding (%) results are on record in patent US20150031601A1.

This assay concerns the target serum proteins. Briefly: 90% serum, 30 kDa ultrafiltration, HPLC.
Molecule GFCARVCVKRNGVRVCYRRCN [SEQ ID NO: 125] had a Protein binding (%) of 90%.

GFCWNVCVYRNGARVCHRRCN [SEQ ID NO: 235] came in with a Protein binding (%) of 64%.

Consider GFCWYGCVYRNGVRVCYRRCN [SEQ ID NO: 15], for which the Protein binding (%) was 96%.

GFCYRVCVYRNGVRVCHRRCN [SEQ ID NO: 210] yielded a Protein binding (%) of 89%.

With GFCWNVCVYRNGYRVCHRRCN [SEQ ID NO: 242], the Protein binding (%) worked out at 83%.

In turn, GFCWYACVYRNGKRVCYRRCN [SEQ ID NO: 80] showed a Protein binding (%) of 96%.

As to GFCWYVCVYKNGVRVCHRRCN [SEQ ID NO: 89], the Protein binding (%) worked out at 90%.

The molecule GFCWNVCVYRRGVRVCHRRCN [SEQ ID NO: 234] showed a Protein binding (%) of 86%.

MFCWNVCVYRNGVRVCHRRCN [SEQ ID NO: 101] had a Protein binding (%) of 81%.

Consider GFCWNVCVYRNGRRVCHRRCN [SEQ ID NO: 239], for which the Protein binding (%) came out at 65%.

Regarding GFCYNVCVYRNGVRRCYRRCN [SEQ ID NO: 207], the Protein binding (%) came to 91%.

In the case of GFCWNVCVYRNKVRVCHRRCN [SEQ ID NO: 227], the Protein binding (%) amounted to 80%.

In the case of GFCGHVCVYRNGVRRCYRRCN [SEQ ID NO: 155], the Protein binding (%) is 83%.

GFCAKVCVYRNGVRSCYRRCN [SEQ ID NO: 120] returned a Protein binding (%) of 69%.

GFCWNVCVYRQGVRVCHRRCN [SEQ ID NO: 233]: the Protein binding (%) was 78%.

In turn, GFCWNVCVYRAGVRVCHRRCN [SEQ ID NO: 230] came in with a Protein binding (%) of 71%.

The molecule GFCWNVCVYRNRVRVCHRRCN [SEQ ID NO: 228] showed a Protein binding (%) of 86%.

Consider HFCWNVCVYRNGVRVCHRRCN [SEQ ID NO: 98], for which the Protein binding (%) was determined as 77%.

Molecule GFCWRVCVYRNGVRVCHRRCN [SEQ ID NO: 76] showed a Protein binding (%) of 92%.

Take GFCWHVCVYRNGARSCYRRCN [SEQ ID NO: 213]: the Protein binding (%) worked out at 95%.

The molecule GFCWYVCVKRNGVRSCYRRCN [SEQ ID NO: 87] showed a Protein binding (%) of 93%.

As to GFCWKVCVYRNGVRVCYRRCN [SEQ ID NO: 10], the Protein binding (%) amounted to 64%.

In turn, GFCWNVCVYRNGVRFCHRRCN [SEQ ID NO: 245] yielded a Protein binding (%) of 85%.

In the case of GFCWNVCVYRNGVRVCYRRCN [SEQ ID NO: 11], the Protein binding (%) is 73%.

In turn, GFCGRVCVYRNGVRRCYRRCN [SEQ ID NO: 170] returned a Protein binding (%) of 87%.

GFCYRVCVYRNGVRTCYRRCN [SEQ ID NO: 209] registered a Protein binding (%) of 89%.

Take GFCWNVCVYRNGVRGCHRRCN [SEQ ID NO: 246]: the Protein binding (%) came out at 79%.

With GFCWHVCARRNGVRVCYRRCN [SEQ ID NO: 218], the Protein binding (%) amounted to 99%.

GFCWHVCHYRNSVRVCYRRCN [SEQ ID NO: 219] gave a Protein binding (%) of 99%.

For GFCGHVCVYRNGVRVCYRRCS [SEQ ID NO: 144], the Protein binding (%) was found to be 68%.

On to GFCWNVCVYRNYVRVCHRRCN [SEQ ID NO: 229], for which the Protein binding (%) is 91%.

With GFCGRVCVRRNGVRVCYRRCN [SEQ ID NO: 172], the Protein binding (%) worked out at 88%.

With GFCWNVCVYRNGHRVCHRRCN [SEQ ID NO: 237], the Protein binding (%) was 40%.

On to GFCSYVCVYRNGVRVCYRRCN [SEQ ID NO: 7], for which the Protein binding (%) is 68%.

For the molecule GFCYRVCVYRNGVRVCSRRCN [SEQ ID NO: 211], the Protein binding (%) amounted to 96%.

In turn, GFCYKVCVYRNGVRSCYRRCN [SEQ ID NO: 206] had a Protein binding (%) of 86%.

GFCTYVCVKRNGVRKCYRRCN [SEQ ID NO: 195] showed a Protein binding (%) of 95%.

The molecule GFCWNVCVYRHGVRVCHRRCN [SEQ ID NO: 232] registered a Protein binding (%) of 85%.

For the molecule KFCWNVCVYRNGVRVCHRRCN [SEQ ID NO: 100], the Protein binding (%) stood at 78%.

GFCARVCVYRNGVRSCYRRCN [SEQ ID NO: 122]: the Protein binding (%) is 81%.

As to GFCWNVCVYRGGVRVCHRRCN [SEQ ID NO: 231], the Protein binding (%) was 66%.

For the molecule GFCFYVCVKRNGVRVCHRRCN [SEQ ID NO: 137], the Protein binding (%) is 86%.

GFCWNVCVYRNGVRICHRRCN [SEQ ID NO: 248] showed a Protein binding (%) of 58%.

As to GFCGRVCVYRNGVRTCYRRCN [SEQ ID NO: 171], the Protein binding (%) is 84%.
